Read-outs that look alike come from different tables or passages of the source. Values belong to the molecule of their own block, whether it stands above or below them.
What was measured:
[1] = target: IgE antibodies of the allergic patient serum pool We 6/97; assay: EAST inhibition, serum pool We 6/97
[2] = target: IgE antibodies of the allergic patient serum pool Bor 18/100 (20 donors); assay: EAST inhibition, serum pool Bor 18/100
[3] = target: IgE antibodies of the individual allergic patient serum II/3; assay: EAST inhibition, individual serum II/3
[4] = target: IgE antibodies of the individual allergic patient serum II/12; assay: EAST inhibition, individual serum II/12
[5] = target: IgE antibodies of the individual allergic patient serum II/17; assay: EAST inhibition, individual serum II/17
[6] = tested on: IgE antibodies of allergic patients; assay: EAST inhibition test (IgE reactivity / allergenicity); type: binding, human; conditions: for IC50: read-out: Inhibition value 50% (concentration of the inhibitor at 50% inhibition); for Allergenic potency (Prel) 25%: relative to native Phl p 5b at 25% inhibition; for Allergenic potency (Prel) 50%: relative to native Phl p 5b at 50% inhibition
Description: The effects of the induced mutations on the allergenicity, i.e. the ability to bind to the IgE antibodies of allergic patients, of the modified recombinant allergens is determined qualitatively and quantitatively by means of the EAST inhibition test. […] The extent of the immunochemical relatedness (cross reactivity) can also be quantified. This EAST inhibition test only takes the reaction with IgE antibodies into account.
The binding of the allergens by the IgE antibodies is the basic prerequisite for the allergen-specific activation of the effector cells (mast cells, basophils, inter alia) in type I allergy. The allergen-specific inhibition of the enzyme/allergen sorbent test (EAST) is the best means for qualitatively and quantitatively recording the binding of the allergens to IgE anti-bodies. The EAST inhibition test is carried out as follows. Microtitre plates are coated with allergen (natural or recombinant Ph1 p 5 or Ph1 p 5b) (1 μg/ml). After the unbound allergen molecules have been removed by washing, non-specific plastic binding sites are blocked with bovine serum albumin (0.5%). […] from allergic patients, as a representative pool of 10-30 donors or as an individual serum, is incubated, in a suitable dilution, with the allergen-coated microtritre plates. The bound allergen-specific IgE antibodies are quantified using enzyme-coupled anti-IgE antibodies (e.g. alk. phosphatase-a-IgE antibodies). This binding is inhibited by soluble allergen or the substance to be tested (allergen mutants) in dependence on the concentration. The inhibition curve obtained with the purified natural allergen Ph1 p 5b is used as the reference.

[7] = tested on: Phl p 5b-reactive T cell clones (TCCs) from allergic patients; assay: Proliferative reaction of Phl p 5b-reactive T cell clones ([3H]-thymidine incorporation); type: cell-based, human; conditions: final concentration 0.3 μM
Description: (§1) 40 ml of heparinized blood were obtained from each patient. Peripheral mononuclear cells (PBMC) were then isolated from this blood sample by means of the customary method using density gradient centrifugation. Analogous cell isolations were carried out at a later stage when it was necessary to obtain irradiated autologous antigen-presenting cells (APC) for characterizing the TCL and TCC further. After the PBMC had been counted, TCL which reacted to group 5 allergens in vitro were established as follows and as has already been described in detail elsewhere (Lit. 1): in each well of 24-well microculture plates, from 1.5 to 2.0×10^6 PBMC in 1 ml of culture medium (UltraCulture) were stimulated for 7 days in the added presence of natural Phl p5 allergens (in each case 10 μg/well) which had been purified by immunoaffinity chromatography. A total of from 8 to 10 of these cultures were set up. The isolation of Phl p5 by means of immunoaffinity chromatography has been described in detail (Lit. 2). At the end of the 7 days of culture, IL-2 (from 10 to 20 IU/well) was added to the cell cultures for a further 5 to 7 days. All the individual cultures were then pooled and the T cell blasts were enriched by means of density gradient centrifugation; the TCL which were obtained were then tested in a specific lymphocyte proliferation test (see Lit. 1 as well). For this, 2×10^4/ml TCL blasts were in each case cultured with 5×10^4/ml irradiated autologous APCs in triplicate samples in 96-well microculture plates. 10-20 μg of Phl p5 allergen were added as the specific antigen stimulus. After 56 hours of incubation, ^3H-labelled thymidine (1 μCi/well) was pipetted into the microcultures. After a further 16 hours, the radioactivity which had been incorporated into the proliferating T cell blasts was measured in a beta counter (Matrix 96). The results were calculated, as the arithmetic mean of the multiple samples, in counts per minute (cpm). The criterion for the quality of the TCL was the stimulation index, which was obtained by relating the cpm values with Phl p5 addition to those without Phl p5 addition.
After a TCL had been cloned (see below), the specificity of the isolated TCCs were determined as has just been described. Stimulation indices of at least 5 were rated as being positive for the TCCs. The determination of T cell epitopes for defining the T cell-reactive regions on group 5 allergens was also carried out using specific proliferation tests, with 1-2 μg of synthesized dodecapeptide/ml being used for this purpose in each case (see below).
The reactivity of the recombinant Ph1 p 5b mutants was tested on established T cell clones (TCCs) of known specificity. The TCCs derive from patients who are allergic to grass pollen (see Ex. 1) and are directed against the T cell-reactive regions A (FIG. 7), B (FIG. 8) and C (FIG. 9). The T cell reactivity was measured by stimulating the clones to proliferate.

[8] = tested on: Phl p 5b-reactive T cell lines (TCLs) from allergic patients; assay: Proliferative reaction of Phl p 5b-reactive oligoclonal T cell lines ([3H]-thymidine incorporation); type: cell-based, human; conditions: secondary activator 0.3 μM
Description: In the second phase, oligoclonal T cell lines, which have been established by repeated stimulation with the relevant allergens, are employed for the testing. Once again, only those modified recombinant allergens which at least give rise to a stimulation index (SI) of 50% of the SI of the wild type are taken into consideration.
as §1
The oligoclonal T cell lines (TCLs) from 8 patients who were allergic to grass pollen (see Ex. 1) were established by repeated activation with natural Ph1 p 5b (a+b) or recombinant rPh1 p 5b or 5a+5b.
The proliferative reaction of these TCLs was tested using the rPh1 p 5b mutants (FIG. 10).

[9] = allergic patient serum pool Bor 18/100
[10] = allergic patient serum pool We 6/97
[11] = individual allergic patient serum II/3
[12] = individual allergic patient serum II/12
[13] = individual allergic patient serum II/17

- IC50 [1]: 6.1 nM
- allergenic potency (Prel) at 25% inhibition (relative to native Phl p 5b) [1]: 1
- allergenic potency (Prel) at 50% inhibition (relative to native Phl p 5b) [1]: 1
- inhibition value (inhibitor concentration at 25% inhibition) [1]: 5.1e-10 mol/L
- IC50 [2]: 4.2 nM
- allergenic potency (Prel) at 25% inhibition (relative to native Phl p 5b) [2]: 1
- allergenic potency (Prel) at 50% inhibition (relative to native Phl p 5b) [2]: 1
- inhibition value (inhibitor concentration at 25% inhibition) [2]: 3.3e-10 mol/L
- IC50 [3]: 5.9 nM
- allergenic potency (Prel) at 25% inhibition (relative to native Phl p 5b) [3]: 1
- allergenic potency (Prel) at 50% inhibition (relative to native Phl p 5b) [3]: 1
- inhibition value (inhibitor concentration at 25% inhibition) [3]: 5.1e-10 mol/L
- IC50 [4]: 6.8 nM
- allergenic potency (Prel) at 25% inhibition (relative to native Phl p 5b) [4]: 1
- allergenic potency (Prel) at 50% inhibition (relative to native Phl p 5b) [4]: 1
- inhibition value (inhibitor concentration at 25% inhibition) [4]: 5.2e-10 mol/L
- IC50 [5]: 2.6 nM
- allergenic potency (Prel) at 25% inhibition (relative to native Phl p 5b) [5]: 1
- allergenic potency (Prel) at 50% inhibition (relative to native Phl p 5b) [5]: 1
- inhibition value (inhibitor concentration at 25% inhibition) [5]: 2.2e-10 mol/L
B1: natural Phl p 5b, purified by affinity chromatography (protein)
chain: ADAGYAPATPAAAGAAAGKATTEEQKLIEDINVGFKAAVAAAASVPAADKFKTFEAAFTSSSKAAAAKAPGLVPKLDAAYSVAYKAAVGATPEAKFDSFVASLTEALRVIAGALEVHAVKPVTEEPGMAKIPAGELQIIDKIDAAFKVAATAAATAPADDKFTVFEAAFNKAIKESTGGAYDTYKCIPSLEAAVKQAYAATVAAAPQVKYAVFEAALTKAITAMSEVQKVSQPATGAATVAAGAATTAAGAASGAATVAAGGYKV

- IC50 [6, 9]: 4.2 nM
- IC50 [6, 10]: 6.1 nM
- IC50 [6, 11]: 5.9 nM
- IC50 [6, 12]: 6.8 nM
- IC50 [6, 13]: 2.6 nM
B2: n Phl p 5b: purified natural allergen Phl p 5b of timothy grass (Phleum pratense), reference of the EAST inhibition (protein)
chain: B1 chain
- Inhibition value 25% (concentration of the inhibitor at 25% inhibition) [6, 9]: 3.3e-10 mol/L
- Inhibition value 25% (concentration of the inhibitor at 25% inhibition) [6, 10]: 5.1e-10 mol/L
- Inhibition value 25% (concentration of the inhibitor at 25% inhibition) [6, 11]: 5.1e-10 mol/L
- Inhibition value 25% (concentration of the inhibitor at 25% inhibition) [6, 12]: 5.2e-10 mol/L
- Inhibition value 25% (concentration of the inhibitor at 25% inhibition) [6, 13]: 2.2e-10 mol/L
- Allergenic potency (Prel) 25% ([6]; individual serum II/3): 1.000
- Allergenic potency (Prel) 25% ([6]; individual serum II/12): 1.000
- Allergenic potency (Prel) 25% ([6]; individual serum II/17): 1.000
- Allergenic potency (Prel) 25% ([6]; serum pool Bor 18/100): 1.000
- Allergenic potency (Prel) 25% ([6]; serum pool We 6/97): 1.000
- Allergenic potency (Prel) 50% ([6]; individual serum II/3): 1.000
- Allergenic potency (Prel) 50% ([6]; individual serum II/12): 1.000
- Allergenic potency (Prel) 50% ([6]; individual serum II/17): 1.000
- Allergenic potency (Prel) 50% ([6]; serum pool Bor 18/100): 1.000
- Allergenic potency (Prel) 50% ([6]; serum pool We 6/97): 1.000

- IC50 [6, 9]: 5 nM
- IC50 [6, 10]: 1400 nM
- IC50 [6, 11]: 14 nM
- IC50 [6, 12]: 73 nM
- IC50 [6, 13]: 4.7 nM
B3: r Phl p 5b: recombinant wild type Phl p 5b, 265 amino acids, SEQ ID NO 87 (protein)
chain: B1 chain
- Inhibition value 25% (concentration of the inhibitor at 25% inhibition) [6, 9]: 2e-10 mol/L
- Inhibition value 25% (concentration of the inhibitor at 25% inhibition) [6, 10]: 3e-10 mol/L
- Inhibition value 25% (concentration of the inhibitor at 25% inhibition) [6, 11]: 5.6e-10 mol/L
- Inhibition value 25% (concentration of the inhibitor at 25% inhibition) [6, 12]: 8.7e-10 mol/L
- Inhibition value 25% (concentration of the inhibitor at 25% inhibition) [6, 13]: 2.1e-10 mol/L
- Allergenic potency (Prel) 25% ([6]; individual serum II/3): 0.9030
- Allergenic potency (Prel) 25% ([6]; individual serum II/12): 0.597
- Allergenic potency (Prel) 25% ([6]; individual serum II/17): 1.045
- Allergenic potency (Prel) 25% ([6]; serum pool Bor 18/100): 1.709
- Allergenic potency (Prel) 25% ([6]; serum pool We 6/97): 1.697
- Allergenic potency (Prel) 50% ([6]; individual serum II/3): 0.4190
- Allergenic potency (Prel) 50% ([6]; individual serum II/12): 0.093
- Allergenic potency (Prel) 50% ([6]; individual serum II/17): 0.5450
- Allergenic potency (Prel) 50% ([6]; serum pool Bor 18/100): 0.8410
- Allergenic potency (Prel) 50% ([6]; serum pool We 6/97): 0.4400
- EAST inhibition curve / inhibitory effect (in words) ([6]; serum pool Bor 18/100 (20 donors), FIG. 1): binding curves which are similar to that obtained with natural Ph1 p 5b
- Incorporation of [3H]-thymidine into TCC CB 2 (stimulation index class) ([7]; T cell-reactive region A): +++ (>10 (+++))
- Incorporation of [3H]-thymidine into TCC CB 14 (stimulation index class) ([7]; T cell-reactive region A): +++ (>10 (+++))
- Incorporation of [3H]-thymidine into TCC JR 13 (stimulation index class) ([7]; T cell-reactive region A): +++ (>10 (+++))
- Incorporation of [3H]-thymidine into TCC JR 15 (stimulation index class) ([7]; T cell-reactive region A): +++ (>10 (+++))
- Incorporation of [3H]-thymidine into TCC DW8 (stimulation index class) ([7]; T cell-reactive region B): + (1-2 (+))
- Incorporation of [3H]-thymidine into TCC UZH2 (stimulation index class) ([7]; T cell-reactive region B): +++ (>10 (+++))
- Incorporation of [3H]-thymidine, stimulation index SI, 1st exp. ([7]; T cell-reactive region C): 11.0
- Incorporation of [3H]-thymidine, stimulation index SI, 2nd exp. ([7]; T cell-reactive region C): 7.0
- Incorporation of [3H]-thymidine, stimulation index SI, 3rd exp. ([7]; T cell-reactive region C): 5.5
- Incorporation of [3H]-thymidine, stimulation index class (last column, no head) ([7]; T cell-reactive region C): ++ (5-10 (++))
- Incorporation of [3H]-thymidine into TCL 1 Wöl (stimulation index class) ([8]; primary stimulator n Phl p 5): + (1-2 (+))
- Incorporation of [3H]-thymidine into TCL 2 Eic (stimulation index class) ([8]; primary stimulator n Phl p 5): + (1-2 (+))
- Incorporation of [3H]-thymidine into TCL 3 Fre (stimulation index class) ([8]; primary stimulator n Phl p 5): + (1-2 (+))
- Incorporation of [3H]-thymidine into TCL 4 Mer (stimulation index class) ([8]; primary stimulator n Phl p 5): + (1-2 (+))
- Incorporation of [3H]-thymidine into TCL 5 17.4 (stimulation index class) ([8]; primary stimulator r Phl p 5): + (1-2 (+))
- Incorporation of [3H]-thymidine into TCL 6 Mah (stimulation index class) ([8]; primary stimulator r Phl p 5a, r Phl p 5b): +++ (>10 (+++))
- Incorporation of [3H]-thymidine into TCL 7 19.2 (stimulation index class) ([8]; primary stimulator r Phl p 5b): +++ (>10 (+++))
- Incorporation of [3H]-thymidine into TCL 8 20.1 (stimulation index class) ([8]; primary stimulator r Phl p 5b): +++ (>10 (+++))

— patent US6919086B1, “Graminae pollen allergen mutants for specific immunotherapy, and production and use of the same” (Merck Patent Gesellschaft mit, priority 1997, dated 2005)
